Reference: publication PMC6614801, “Structural basis for the function of SuhB as a transcription factor in ribosomal RNA synthesis” (Nucleic Acids Research, 2019)
Numbering of substitutions follows the chain as printed.

T1: SuhB^K108A (E. coli, UniProt P0ADG4 1-267, K108A)
T1 sequence (looked up): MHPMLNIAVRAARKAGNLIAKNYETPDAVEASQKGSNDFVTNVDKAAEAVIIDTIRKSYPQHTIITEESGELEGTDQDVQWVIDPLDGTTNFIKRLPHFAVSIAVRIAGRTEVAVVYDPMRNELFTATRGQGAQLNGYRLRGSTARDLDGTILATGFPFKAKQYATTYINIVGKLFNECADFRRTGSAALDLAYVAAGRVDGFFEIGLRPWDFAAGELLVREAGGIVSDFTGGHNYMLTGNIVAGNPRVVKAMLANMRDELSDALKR

B1: SuhB (inositol mono-phosphatase SuhB), wild type (natural protein, E. coli, UniProt P0ADG4 1-267, looked up)
chain: T1 sequence (looked up) with A108K
notes: Inositol mono-phosphatase SuhB of E. coli, PCR-amplified from E. coli (DH5α) genomic DNA, full length; Dimer by SEC-MALS and in both crystal structures; also called wt SuhB; SuhB^II; source: E. coli BL21(DE3)pLysS, purified (Ni-NTA, TEV digestion, SEC)
B2: N-terminally His6-tagged NusA^AR2 (domain or fragment, E. coli, UniProt P0AFF6 427-495, looked up)
chain: DNKPADDLLNLEGVDRDLAFKLAARGVCTLEDLAEQGIDDLADIEGLTDEKAGALIMAARNICWFGDEA
notes: C-terminal acidic repeat 2 (AR2) domain of E. coli NusA, residues 427–495; Same construct as m3, with the His6 tag kept for capture on the NTA chip in SPR; also called wt AR2; source: recombinant (pETM-11), purified via the same protocol as full-length NusA (19); not shown: His6, N-terminal, kept
B3: SuhB^KL251/254AA (natural protein, E. coli, UniProt P0ADG4 1-267, looked up)
chain: T1 sequence (looked up) with A108K, K251A, L254A
notes: also called KL/AA

Tests used:
Conditions in all cases: both partners purified
[1] = biological target: T2, NusA, full length (E. coli, UniProt P0AFF6 1-495); assay: SEC; analytical SEC of mixtures of proteins only; Superdex 200 Increase 3.2/300; 20 μM largest component, 25 μM all smaller components; 20 mM HEPES–NaOH pH 7.5, 50 mM NaCl, 1 mM DTT; incubated at room temperature for 15 min; fractions on SDS-PAGE
T2 construct: Transcription factor NusA of E. coli, full length; also called NusA^FL; N-utilization substance A; source: recombinant, produced and purified as described previously (18,19)

[2] = biological target: T1, SuhB^K108A; assay: SPR; Biacore, Sensor Chip NTA, 20°C; N-terminally His6-tagged NusA^AR2 immobilised; single cycle kinetics with SuhB variants at 25, 50, 100, 150 and 200 nM; 20 mM HEPES–NaOH pH 7.5, 50 mM NaCl, 1 mM DTT
[3] = biological target: B1; assay: as above

Q: Does B1 bind [1]?
A: binds

Q: Which results are given for B2?
A: Kd [2]: 435 nM; Kd [3]: 94 nM

Q: Does B3 bind [1]?
A: binds
